In test [1] the target is home3_human HOMER3 (UniProt Q9NSC5).
Test [2] deals with enah_human ENAH (UniProt Q8N8S7).
Sequence of UniProt Q8N8S7 (Q8N8S7 whole entry): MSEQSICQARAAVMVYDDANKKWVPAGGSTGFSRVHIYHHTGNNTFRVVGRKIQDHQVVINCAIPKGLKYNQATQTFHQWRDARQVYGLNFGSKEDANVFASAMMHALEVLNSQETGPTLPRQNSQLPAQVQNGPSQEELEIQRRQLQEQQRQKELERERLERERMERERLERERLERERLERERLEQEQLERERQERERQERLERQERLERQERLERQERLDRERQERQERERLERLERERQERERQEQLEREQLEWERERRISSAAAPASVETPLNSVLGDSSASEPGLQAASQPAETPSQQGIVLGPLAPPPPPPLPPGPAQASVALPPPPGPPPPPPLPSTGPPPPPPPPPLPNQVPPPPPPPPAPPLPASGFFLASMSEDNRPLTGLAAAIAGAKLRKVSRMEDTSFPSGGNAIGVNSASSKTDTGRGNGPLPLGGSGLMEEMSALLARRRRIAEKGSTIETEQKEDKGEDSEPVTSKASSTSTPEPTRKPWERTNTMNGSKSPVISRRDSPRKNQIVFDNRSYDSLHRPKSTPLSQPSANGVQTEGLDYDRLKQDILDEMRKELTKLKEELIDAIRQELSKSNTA

Sequence of UniProt Q9NSC5 (Q9NSC5 whole entry): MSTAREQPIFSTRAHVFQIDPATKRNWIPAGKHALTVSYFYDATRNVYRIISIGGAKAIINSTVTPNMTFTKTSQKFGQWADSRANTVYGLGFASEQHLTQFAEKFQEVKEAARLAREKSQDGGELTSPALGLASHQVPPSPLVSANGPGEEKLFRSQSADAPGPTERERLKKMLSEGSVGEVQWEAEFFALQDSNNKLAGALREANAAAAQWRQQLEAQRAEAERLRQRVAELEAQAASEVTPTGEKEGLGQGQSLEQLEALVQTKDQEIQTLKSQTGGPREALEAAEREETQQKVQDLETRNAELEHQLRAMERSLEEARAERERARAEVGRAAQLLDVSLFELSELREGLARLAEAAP

As to “Protocadherin Fat 1 (Homo sapiens), Q14517 P4438D”, the “effect of a mutation on the interaction” value in test [1] and in test [2] was “disrupting interaction” throughout.

These data come from IntAct's records for PubMed 16979624.
